Test results reported in publication doi:10.1101/2023.08.30.555640 (bioRxiv, 2023).

Target: Wildtype human ubiquitin (human, UniProt P0CG47 1-76)
Test: NMR titration

binding result: binds
Binder: PEVRFQQQLEQLNAMGFLNREANLQALIATGGDINAAIERLLGS (domain or fragment) [human ubiquilin2 UBA domain (residues 578 to 621)]
